Measurements published in patent US20100256332A1, “GLP-1 Fusion Peptides, Their Production and Use” (BIOCOMPATIBLES UK LTD, priority 2007, published 2010).

Tested on: type II diabetic mice (C57BUKs-Lepr db/db)
Assay: In vivo bioactivity in type II diabetic mice
Parameters: species or system mouse
Details: 5 μg peptide s.c. twice a day, Day 2, 4, 7, 10, overnight fasted
Description: 11-week-old type II diabetic mice (C57BUKs-Lepr^db/db, Harlan) were treated with 5 μg peptide by subcutaneous injection twice a day at 9 a.m. and 5 p.m. (n=5 per group).
Blood glucose was measured before (day 0) and after treatment with GLP^CM peptides (Day 2, 4, 7, 10) at 10 a.m. after an overnight fastening period. Data were presented in relation to blood glucose levels measured at day 0.
Best results were obtained with recombinant SEQ ID No.:6 (CM1) and synthetic SEQ ID No.:8 (CM3). In FIG. 5 (y-axis) the relative effect of the treatment is shown. Blood glucose at day=0 was set to 1. Untreated animals undergo continuous increase in blood glucose level over time, whereas animals treated with inventive peptides display grosso modo a continuous decrease of the blood glucose level over time.

B1: GLP-1(7-37)-IP2-RR-GLP2 (peptide)
chain: HAEGTFTSDVSSYLEGQAAKEFIAWLVKGRGRRDFPEEVAIAEELGRRHADGSFSDEMSTILDNLATRDFINWLIQTKITDKK
notes: 83 aa fusion peptide
With B1 the “anti-hyperglycemia effect (blood glucose in relation to day 0)” value was “anti-hyperglycemia effect”.
